Broadly, the IC50 is the point on the concentration scale where inhibition reaches its midpoint. The low end stands for greater potency, the high end for weaker potency. For orientation: Kd means the free concentration of one partner at which half of the binding sites on the other are occupied at equilibrium, for simple one-to-one binding. Low values mean higher affinity, high ones lower affinity. One may read the koff as the rate constant with which the complex falls apart. A lower koff goes with a long-lived complex. As a reminder, the kon is the rate constant with which the complex forms. High values mean fast association, low ones slow association. Usually EC50 (read off the curve) stands for the concentration at which the effect is half-maximal. High values mean weaker potency, low ones greater potency.

Read-outs that look alike come from different tables or passages of the source.

Some targets named below: K417N; A475V; N501Y; Y453F; N439K.
What all share (conditions): remark: other sources report otherwise
Assay [1] concerns the target T1, SARS-CoV-2 spike receptor-binding domain (RBD) (SARS-CoV-2), P0DTC2. Briefly: indirect ELISA on coated RBD ('ELISA affinity'). Background: An ELISA detects its analyte on a solid surface through an enzyme-linked reagent.
Assay [2] concerns the target T1, SARS-CoV-2 spike receptor-binding …. Briefly: SPR (Biacore 3000), RBD immobilised. (SPR reads the build-up and loss of mass on a sensor chip optically.)
Assay [3] shares this target.
The target is the same in assay [4]. This is another data set of the same source.
The target is the same in assay [5]. Nature of the assay: ELISA; the sheet does not name the coated protein, the legend paragraph 51 says RBD.
For assay [6] the target is unchanged. This is another data set of the same source.

B1: Nb21 (VHH)
VHH: QVQLVESGGGLVQAGGSLRLSCAVSGLGAHRVGWFRRAPGKEREFVAAIGANGGNTNYLDSVKGRFTISRDNAKNTIYLQMNSLKPQDTAVYYCAARDIETAEYTYWGQGTQVTVSS
In the case of B1, the IC50 in assay [1] was determined as 0.3 nM; in assay [4] it was 0.42 nM. Further, the Kd in assay [2] was less than 0.001 nM. The same molecule had a koff in assay [2] of less than 1e-06 s⁻¹. Besides, in [2], the on-rate (kon) worked out at 3.79e+06 M⁻¹ s⁻¹. The EC50 (read off the curve) in [3] was 1 nM; in [5] it was 5 nM. Further, the binding affinity fold change relative to RBD WT with K417N was -1.43 fold; with A475V, -1.31 fold; in the assay with N501Y, -2.83 fold; with Y453F it was 1.04 fold; in the assay with N439K, 1.18 fold.

B2: Nb17 (VHH)
VHH: HVQLVESGGGLVQAGGSLRLSCAASGSIFSSNAMSWYRQAPGKQRELVASITSGGNADYADSVKGRFTISRDKNTVYPEMSSLKPADTAVYYCHAVGQEASAYAPRAYWGQGTQVTVSS
Consider B2, for which the IC50 in assay [1] was determined as 0.45 nM; in [4], 0.69 nM. Besides, the EC50 (read off the curve) in assay [6] was determined as 1 nM. For the same molecule, the binding affinity fold change relative to RBD WT is -1.2 fold in the assay with K417N; 1.16 fold with A475V; 1.5 fold with N501Y; 1.61 fold in the assay with Y453F; 1.33 fold with N439K.

For the origin of these results see patent publication US20240043505A1.
